Starred links: 1 amine or outer side, 2 acyl side, 3 side chain; linkers in the order of their positions; H or OH if unused. Non-standard residues stand in square brackets, D forms with d. PyrimAla4Ph4CO2H = 4-[5-[(2S)-2-amino-2-carboxy-ethyl]pyrimidin-2-yl]benzoic acid, O=C([C@H](Cc1cnc(-c2ccc(C(=O)[*:3])cc2)nc1)N[*:1])[*:2]; TyrEtNAc = (2S)-3-[4-(2-acetamidoethoxy)phenyl]-2-amino-propanoic acid, CC(=O)NCCOc1ccc(C[C@H](N[*:1])C(=O)[*:2])cc1; Phe(4-(5-CO2H-2-pyrimidyl)) = N[C@@H](Cc1ccc(-c2ncc(C(=O)O)cn2)cc1)C(=O)O; Phe(4-(4-Ac-piperazinyl)) = CC(=O)N1CCN(c2ccc(C[C@H](N)C(=O)O)cc2)CC1; dPro(4R-(4-pyridylmethyl)) = O=C(O)[C@H]1C[C@@H](Cc2ccncc2)CN1; Trp(βS-Me,4-F) = C[C@@H](c1c[nH]c2cccc(F)c12)[C@H](N)C(=O)O; Bip(4'-COOH) = N[C@@H](Cc1ccc(-c2ccc(C(=O)O)cc2)cc1)C(=O)O; Ala(1-bicyclo(1.1.1)pentyl) = N[C@@H](CC12CC(C1)C2)C(=O)O; dPro(4R-Bzl(4-F)) = O=C(O)[C@H]1C[C@@H](Cc2ccc(F)cc2)CN1; Ala(pyrimidin-5-yl) = N[C@@H](Cc1cncnc1)C(=O)O; Phe(4-COOH) = N[C@@H](Cc1ccc(C(=O)O)cc1)C(=O)O; Pro(cis-4-F) = O=C(O)[C@@H]1C[C@H](F)CN1; 4Pal = N[C@@H](Cc1ccncc1)C(=O)O; Dab = NCC[C@H](N)C(=O)O; Dap = NC[C@H](N)C(=O)O; Aib = CC(C)(N)C(=O)O
B1: SEQ ID NO: 95 (peptide)
peptide: cyclo([TyrEtNAc][4Pal][Phe(4-COOH)]G[Pro(cis-4-F)][Trp(βS-Me,4-F)][Aib]EW[Aib][4Pal]Q[Dab]G[dPro(4R-Bzl(4-F))])
SMILES: CC(=O)NCCOc1ccc(C[C@@H]2NC(=O)[C@H]3C[C@@H](Cc4ccc(F)cc4)CN3C(=O)CNC(=O)[C@H](CCN)NC(=O)[C@H](CCC(N)=O)NC(=O)[C@H](Cc3ccncc3)NC(=O)C(C)(C)NC(=O)[C@H](Cc3c[nH]c4ccccc34)NC(=O)[C@H](CCC(=O)O)NC(=O)C(C)(C)NC(=O)[C@H]([C@@H](C)c3c[nH]c4cccc(F)c34)NC(=O)[C@@H]3C[C@H](F)CN3C(=O)CNC(=O)[C@H](Cc3ccc(C(=O)O)cc3)NC(=O)[C@H](Cc3ccncc3)NC2=O)cc1
B2: SEQ ID NO: 85 (peptide)
peptide: cyclo([Phe(4-(5-CO2H-2-pyrimidyl))][4Pal][Phe(4-COOH)]G[Pro(cis-4-F)][Trp(βS-Me,4-F)][Aib]AW[Aib][4Pal]Q[Dab]G[dPro(4R-(4-pyridylmethyl))])
SMILES: C[C@@H]1NC(=O)C(C)(C)NC(=O)[C@H]([C@@H](C)c2c[nH]c3cccc(F)c23)NC(=O)[C@@H]2C[C@H](F)CN2C(=O)CNC(=O)[C@H](Cc2ccc(C(=O)O)cc2)NC(=O)[C@H](Cc2ccncc2)NC(=O)[C@H](Cc2ccc(-c3ncc(C(=O)O)cn3)cc2)NC(=O)[C@H]2C[C@@H](Cc3ccncc3)CN2C(=O)CNC(=O)[C@H](CCN)NC(=O)[C@H](CCC(N)=O)NC(=O)[C@H](Cc2ccncc2)NC(=O)C(C)(C)NC(=O)[C@H](Cc2c[nH]c3ccccc23)NC1=O
B3: SEQ ID NO: 84 (peptide)
peptide: cyclo([Phe(4-(5-CO2H-2-pyrimidyl))][Ala(1-bicyclo(1.1.1)pentyl)][Phe(4-COOH)]G[Pro(cis-4-F)][Trp(βS-Me,4-F)][Aib]SW[Aib][4Pal]Q[Dab]G[dPro(4R-Bzl(4-F))])
SMILES: C[C@@H](c1c[nH]c2cccc(F)c12)[C@@H]1NC(=O)[C@@H]2C[C@H](F)CN2C(=O)CNC(=O)[C@H](Cc2ccc(C(=O)O)cc2)NC(=O)[C@H](CC23CC(C2)C3)NC(=O)[C@H](Cc2ccc(-c3ncc(C(=O)O)cn3)cc2)NC(=O)[C@H]2C[C@@H](Cc3ccc(F)cc3)CN2C(=O)CNC(=O)[C@H](CCN)NC(=O)[C@H](CCC(N)=O)NC(=O)[C@H](Cc2ccncc2)NC(=O)C(C)(C)NC(=O)[C@H](Cc2c[nH]c3ccccc23)NC(=O)[C@H](CO)NC(=O)C(C)(C)NC1=O
B4: SEQ ID NO: 88 (peptide)
peptide: cyclo([Phe(4-(5-CO2H-2-pyrimidyl))][Ala(1-bicyclo(1.1.1)pentyl)][Phe(4-COOH)]G[Pro(cis-4-F)][Trp(βS-Me,4-F)][Aib]AW[Aib][4Pal]Q[Dab]G[dPro(4R-(4-pyridylmethyl))])
SMILES: C[C@@H]1NC(=O)C(C)(C)NC(=O)[C@H]([C@@H](C)c2c[nH]c3cccc(F)c23)NC(=O)[C@@H]2C[C@H](F)CN2C(=O)CNC(=O)[C@H](Cc2ccc(C(=O)O)cc2)NC(=O)[C@H](CC23CC(C2)C3)NC(=O)[C@H](Cc2ccc(-c3ncc(C(=O)O)cn3)cc2)NC(=O)[C@H]2C[C@@H](Cc3ccncc3)CN2C(=O)CNC(=O)[C@H](CCN)NC(=O)[C@H](CCC(N)=O)NC(=O)[C@H](Cc2ccncc2)NC(=O)C(C)(C)NC(=O)[C@H](Cc2c[nH]c3ccccc23)NC1=O
B5: SEQ ID NO: 94 (peptide)
peptide: cyclo([Phe(4-(5-CO2H-2-pyrimidyl))][Ala(1-bicyclo(1.1.1)pentyl)][Phe(4-COOH)]G[Pro(cis-4-F)][Trp(βS-Me,4-F)][Aib]AW[Aib]SQ[Dab]G[dPro(4R-Bzl(4-F))])
SMILES: C[C@@H]1NC(=O)C(C)(C)NC(=O)[C@H]([C@@H](C)c2c[nH]c3cccc(F)c23)NC(=O)[C@@H]2C[C@H](F)CN2C(=O)CNC(=O)[C@H](Cc2ccc(C(=O)O)cc2)NC(=O)[C@H](CC23CC(C2)C3)NC(=O)[C@H](Cc2ccc(-c3ncc(C(=O)O)cn3)cc2)NC(=O)[C@H]2C[C@@H](Cc3ccc(F)cc3)CN2C(=O)CNC(=O)[C@H](CCN)NC(=O)[C@H](CCC(N)=O)NC(=O)[C@H](CO)NC(=O)C(C)(C)NC(=O)[C@H](Cc2c[nH]c3ccccc23)NC1=O
B6: SEQ ID NO: 89 (peptide)
peptide: cyclo([Phe(4-(5-CO2H-2-pyrimidyl))][Ala(1-bicyclo(1.1.1)pentyl)][Phe(4-COOH)]G[Pro(cis-4-F)][Trp(βS-Me,4-F)][Aib]SW[Aib][4Pal]Q[Dab]G[dPro(4R-(4-pyridylmethyl))])
SMILES: C[C@@H](c1c[nH]c2cccc(F)c12)[C@@H]1NC(=O)[C@@H]2C[C@H](F)CN2C(=O)CNC(=O)[C@H](Cc2ccc(C(=O)O)cc2)NC(=O)[C@H](CC23CC(C2)C3)NC(=O)[C@H](Cc2ccc(-c3ncc(C(=O)O)cn3)cc2)NC(=O)[C@H]2C[C@@H](Cc3ccncc3)CN2C(=O)CNC(=O)[C@H](CCN)NC(=O)[C@H](CCC(N)=O)NC(=O)[C@H](Cc2ccncc2)NC(=O)C(C)(C)NC(=O)[C@H](Cc2c[nH]c3ccccc23)NC(=O)[C@H](CO)NC(=O)C(C)(C)NC1=O
B7: SEQ ID NO: 91 (peptide)
peptide: cyclo([PyrimAla4Ph4CO2H][4Pal][Phe(4-COOH)]G[Pro(cis-4-F)][Trp(βS-Me,4-F)][Aib]EW[Aib][Ala(pyrimidin-5-yl)]Q[Dab]G[dPro(4R-Bzl(4-F))])
SMILES: C[C@@H](c1c[nH]c2cccc(F)c12)[C@@H]1NC(=O)[C@@H]2C[C@H](F)CN2C(=O)CNC(=O)[C@H](Cc2ccc(C(=O)O)cc2)NC(=O)[C@H](Cc2ccncc2)NC(=O)[C@H](Cc2cnc(-c3ccc(C(=O)O)cc3)nc2)NC(=O)[C@H]2C[C@@H](Cc3ccc(F)cc3)CN2C(=O)CNC(=O)[C@H](CCN)NC(=O)[C@H](CCC(N)=O)NC(=O)[C@H](Cc2cncnc2)NC(=O)C(C)(C)NC(=O)[C@H](Cc2c[nH]c3ccccc23)NC(=O)[C@H](CCC(=O)O)NC(=O)C(C)(C)NC1=O
B8: SEQ ID NO: 93 (peptide)
peptide: cyclo([Bip(4'-COOH)][Ala(1-bicyclo(1.1.1)pentyl)][Phe(4-COOH)]G[Pro(cis-4-F)][Trp(βS-Me,4-F)][Aib]EW[Aib][Dap]Q[Dab]G[dPro(4R-(4-pyridylmethyl))])
SMILES: C[C@@H](c1c[nH]c2cccc(F)c12)[C@@H]1NC(=O)[C@@H]2C[C@H](F)CN2C(=O)CNC(=O)[C@H](Cc2ccc(C(=O)O)cc2)NC(=O)[C@H](CC23CC(C2)C3)NC(=O)[C@H](Cc2ccc(-c3ccc(C(=O)O)cc3)cc2)NC(=O)[C@H]2C[C@@H](Cc3ccncc3)CN2C(=O)CNC(=O)[C@H](CCN)NC(=O)[C@H](CCC(N)=O)NC(=O)[C@H](CN)NC(=O)C(C)(C)NC(=O)[C@H](Cc2c[nH]c3ccccc23)NC(=O)[C@H](CCC(=O)O)NC(=O)C(C)(C)NC1=O
B9: SEQ ID NO: 87 (peptide)
peptide: cyclo([Phe(4-(5-CO2H-2-pyrimidyl))][Ala(1-bicyclo(1.1.1)pentyl)][Phe(4-COOH)]G[Pro(cis-4-F)][Trp(βS-Me,4-F)][Aib]AW[Aib][Ala(pyrimidin-5-yl)]Q[Dab]G[dPro(4R-(4-pyridylmethyl))])
SMILES: C[C@@H]1NC(=O)C(C)(C)NC(=O)[C@H]([C@@H](C)c2c[nH]c3cccc(F)c23)NC(=O)[C@@H]2C[C@H](F)CN2C(=O)CNC(=O)[C@H](Cc2ccc(C(=O)O)cc2)NC(=O)[C@H](CC23CC(C2)C3)NC(=O)[C@H](Cc2ccc(-c3ncc(C(=O)O)cn3)cc2)NC(=O)[C@H]2C[C@@H](Cc3ccncc3)CN2C(=O)CNC(=O)[C@H](CCN)NC(=O)[C@H](CCC(N)=O)NC(=O)[C@H](Cc2cncnc2)NC(=O)C(C)(C)NC(=O)[C@H](Cc2c[nH]c3ccccc23)NC1=O
B10: SEQ ID NO: 9 (peptide)
peptide: cyclo([Bip(4'-COOH)][4Pal][Phe(4-COOH)]G[Pro(cis-4-F)][Trp(βS-Me,4-F)][Aib]EW[Aib][Ala(pyrimidin-5-yl)]QKG[dPro(4R-Bzl(4-F))])
SMILES: C[C@@H](c1c[nH]c2cccc(F)c12)[C@@H]1NC(=O)[C@@H]2C[C@H](F)CN2C(=O)CNC(=O)[C@H](Cc2ccc(C(=O)O)cc2)NC(=O)[C@H](Cc2ccncc2)NC(=O)[C@H](Cc2ccc(-c3ccc(C(=O)O)cc3)cc2)NC(=O)[C@H]2C[C@@H](Cc3ccc(F)cc3)CN2C(=O)CNC(=O)[C@H](CCCCN)NC(=O)[C@H](CCC(N)=O)NC(=O)[C@H](Cc2cncnc2)NC(=O)C(C)(C)NC(=O)[C@H](Cc2c[nH]c3ccccc23)NC(=O)[C@H](CCC(=O)O)NC(=O)C(C)(C)NC1=O
B11: SEQ ID NO: 92 (peptide)
peptide: cyclo([PyrimAla4Ph4CO2H][Ala(1-bicyclo(1.1.1)pentyl)][Phe(4-COOH)]G[Pro(cis-4-F)][Trp(βS-Me,4-F)][Aib]EW[Aib][Ala(pyrimidin-5-yl)]Q[Dab]G[dPro(4R-Bzl(4-F))])
SMILES: C[C@@H](c1c[nH]c2cccc(F)c12)[C@@H]1NC(=O)[C@@H]2C[C@H](F)CN2C(=O)CNC(=O)[C@H](Cc2ccc(C(=O)O)cc2)NC(=O)[C@H](CC23CC(C2)C3)NC(=O)[C@H](Cc2cnc(-c3ccc(C(=O)O)cc3)nc2)NC(=O)[C@H]2C[C@@H](Cc3ccc(F)cc3)CN2C(=O)CNC(=O)[C@H](CCN)NC(=O)[C@H](CCC(N)=O)NC(=O)[C@H](Cc2cncnc2)NC(=O)C(C)(C)NC(=O)[C@H](Cc2c[nH]c3ccccc23)NC(=O)[C@H](CCC(=O)O)NC(=O)C(C)(C)NC1=O

Biological target: Recombinant human IL-1β (BioLegend 579404) (human, UniProt P01584 117-269)
Assay: cell-based or functional assay

Binder | MRC5 IC50
B1 | 0.054 nM
B2 | 0.074 nM
cyclo([Phe(4-(4-Ac-piperazinyl))][Ala(1-bicyclo(1.1.1)pentyl)][Phe(4-COOH)]G[Pro(cis-4-F)][Trp(βS-Me,4-F)][Aib]EW[Aib][4Pal]Q[Dab]G[dPro(4R-Bzl(4-F))]) [SEQ ID NO: 90] | 0.064 nM
B3 | 0.047 nM
B4 | 0.083 nM
B5 | 0.096 nM
B6 | 0.045 nM
B7 | 0.054 nM
B8 | 0.059 nM
B9 | 0.087 nM
B10 | 0.028 nM
cyclo([Phe(4-(5-CO2H-2-pyrimidyl))][Ala(1-bicyclo(1.1.1)pentyl)][Phe(4-COOH)]G[Pro(cis-4-F)][Trp(βS-Me,4-F)][Aib]EW[Aib][4Pal]Q[Dab]G[dPro(4R-(4-pyridylmethyl))]) [SEQ ID NO: 86] | 0.075 nM
B11 | 0.07 nM

From patent US20260242419A1, “A CYCLIC PEPTIDE FOR TRAPPING INTERLEUKIN-1 BETA” (Merck Sharp & Dohme LLC, priority 2023, published 2026)
